{"source": "patent US7608265B2", "about": "“Treatment for bacterial infections” (priority 2004, dated 2009)", "molecules": {"B1": {"name": "H1L1: synthetic antibody S Tag-CDH1-Linker-CDL1-His Tag, SEQ ID NO: 41, from dominant VH and VL of C. difficile patients; binds acetyl-CoA acetyltransferase (protein)", "chain": "EVQLVESGPGLVKPSETLSLTCTVSGGSVSSGSYSWSWIRQRPGQGLEWIGFIYYTGYTSYKSSLKSRVSLSVDTSNDQFSLSLSSVTAADTAVYYCAREIRAPDHHDFSGYLGRWGQGTLVTVSSGGSGGGGSGGGGSASKSSELTQDPAVSVALGQTVRITCQGDSLRSYYASWYQQKPGQAPVLVIYGKNNRPSGIPDRFSGSSSGNTASLTITGAQAEDEADYYCNSRDSTGNQLFGGGTKVTVLG", "modifications": "synthetic H1L1 antibody"}}, "key": {"C. difficile 14000287": {"test_system": "C. difficile 14000287", "assay": "Combination drug MIC (checkerboard), C. difficile 14000287, Brucella broth", "format": "cell-based, Clostridium difficile"}, "C. difficile NCTC 11204": {"test_system": "C. difficile NCTC 11204", "assay": "Combination drug MIC (checkerboard), C. difficile NCTC 11204, RCM", "format": "cell-based, Clostridium difficile"}, "[1]": {"test_system": "Vancomycin resistant Enterococcus faecium", "assay": "Combination drug MIC (checkerboard), Enterococcus faecium", "format": "cell-based"}, "[2]": {"test_system": "Clostridium difficile NCR 1104", "assay": "microbe, parasite or virus in culture", "format": "cell-based"}, "Clostridium difficile": {"test_system": "Clostridium difficile", "assay": "Growth of Clostridium difficile in the presence of SCFA and H1L1 (OD600)", "format": "cell-based", "settings": "for Mean Optical Density at 24 Hours: OD600", "method": "The three SCFAs used were acetate, propionate and butyrate.\nEach was prepared to a concentration of 1 M as follows: • Sodium acetate FW 82.03-82.03 g in 1 litre dH2O • Sodium butyrate FW 110.09-110.09 g in 1 litre dH2O • Sodium propionate FW 96.06-96.06 g in 1 litre dH2O\nThe three solutions were combined in a ratio of 70:20:10 respectively. Therefore, in the final solution the concentrations were sodium acetate 0.7 M, sodium butyrate 0.2 M and sodium propionate 0.1 M. The final concentration of total SCFA was 1 M.\nFrom this stock solution concentrations of 5, 10, 20, 30, 40 and 50 mM total SCFA were prepared using reinforced clostridial medium (RCM, DIFCO).\nReinforced clostridial medium (RCM) was prepared according to the manufacturers instructions: 38 g in 1 litre dH2O\nCultures were only removed from anaerobic conditions immediately prior to use.\nAn overnight suspension of C. difficile was made by inoculation 10 ml of RCM medium with colonies from a 48 hour old Columbia Blood Agar plate of the organism. The suspension was incubated for 24 hours at 37° C. under anaerobic conditions.\nIn a flat-bottomed 96 well microtitre plate control solutions (200 μl) were placed in the wells as outlined below in Table 4. Each control used 3 wells.\nIn a flat-bottomed 96 well microtitre plate (rows labelled A-H, columns labelled 1-12) test solutions (100 μl) were placed in the wells as detailed below. The two test solutions, SCFA plus H1L1, give a combined volume of 200 μl. Each test used 2 wells. […] Wells in columns 1 and 2 contained 16 μg/ml H1L1; in columns 3 and 4, 8 μg/ml H1L1; in columns 5 and 6, 4 μg/ml H1L1; in columns 7 and 8, 2 μg/ml H1L1; in columns 9 and 10, 1 μg/ml H1L1; in columns 11 and 12, 0.5 μg/ml H1L1. Row G was empty. 200 μl RCM was placed into all the wells in row H as a growth control for the plate.\nThe overnight suspension, culture at late log phase, was used to inoculate the microtitre plates. 20 μl (approx 10% inoculum) was added to all the wells, except for the media/negative control on the control plate.\nPlates were incubated at 37° C. under anaerobic conditions for 24 hours.\nOptical density readings (OD600 nm) were made at time points zero and 24 hours. Average OD600 nm readings were determined."}, "[3]": {"test_system": "C. difficile acetyl-CoA acetyl transferase (thiolase)", "sequence (as listed by the source)": "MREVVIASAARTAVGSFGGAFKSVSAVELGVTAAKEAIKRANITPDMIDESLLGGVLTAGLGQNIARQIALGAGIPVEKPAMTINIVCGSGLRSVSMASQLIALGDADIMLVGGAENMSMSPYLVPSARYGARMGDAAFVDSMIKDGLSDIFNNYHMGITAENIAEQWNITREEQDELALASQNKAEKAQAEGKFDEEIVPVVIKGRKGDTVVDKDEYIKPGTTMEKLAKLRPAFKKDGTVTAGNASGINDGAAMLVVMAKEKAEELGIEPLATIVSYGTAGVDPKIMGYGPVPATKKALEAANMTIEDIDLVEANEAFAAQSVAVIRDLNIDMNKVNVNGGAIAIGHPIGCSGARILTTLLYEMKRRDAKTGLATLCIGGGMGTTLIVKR", "assay": "Immunoblot of H1L1 against cloned acetyl-CoA acetyl transferase", "format": "binding, Clostridium difficile", "settings": "H1L1 at 1:10 (approximately 400 μg/ml), purified His-tag thiolase, band just under 50 kD marker", "method": "Cloned and purified acetyl-CoA acetyl transferase was mixed 1:1 with loading buffer and DTT and put on heating block at 90° C. for 5 minutes. 5-15 μl was separated for 35 minutes on a 10% BisTris gel (Invitrogen) using NuPAGE-MES SDS running buffer (Invitrogen).\nThe proteins were transblotted onto Invitrolon PVDF membrane (Invitrogen Ltd, Carlsbad, Calif., USA) and blocked in 5% skimmed milk in 0.1% Tween20 in 10 mM PBS for 1 hour. The membrane was incubated with H1L1 at 1:10 (concentration approximately 400 μg/ml) in 0.1% Tween20 in 10 mM PBS for 1 hour. Washed three times for 5 minutes with 0.1% Tween20 in 10 mM PBS and then incubated for one hour with S-protein HRP conjugate (Novagen) at 1:1000."}, "[4]": {"settings": "gentamicin + H1L1 combination, Brucella broth"}, "[5]": {"settings": "8 μg/ml of H1L1 and SCFA from 10-50 mM"}}, "note": "Read-outs that look alike come from different tables or passages of the source."}
{"molecule": "gentamicin [reference compound]", "values": [{"measurement": "MIC (μg/ml) of each agent Alone", "setting": "C. difficile 14000287; Brucella broth", "value": 8, "unit": "µg/mL"}, {"measurement": "FIC (μg/ml)", "setting": "C. difficile 14000287; [4]", "value": 0.25}, {"measurement": "FICI", "setting": "C. difficile 14000287; [4]", "value": 0.266}, {"measurement": "MIC (μg/ml) of each agent Combination", "setting": "C. difficile 14000287; [4]", "value": 2, "unit": "µg/mL"}, {"measurement": "Outcome", "setting": "C. difficile 14000287; [4]", "value": "Synergy"}, {"measurement": "MIC (μg/ml) of each agent Alone", "setting": "C. difficile NCTC 11204", "value": 16, "unit": "µg/mL"}, {"measurement": "FIC (μg/ml)", "setting": "C. difficile NCTC 11204; gentamicin + H1L1 combination", "value": 0.25}, {"measurement": "FICI", "setting": "C. difficile NCTC 11204; gentamicin + H1L1 combination", "value": 0.375}, {"measurement": "MIC (μg/ml) of each agent Combination", "setting": "C. difficile NCTC 11204; gentamicin + H1L1 combination", "value": 4, "unit": "µg/mL"}, {"measurement": "Outcome", "setting": "C. difficile NCTC 11204; gentamicin + H1L1 combination", "value": "Synergy"}]}
{"molecule": "CN[C@H](CC(C)C)C(=O)N[C@H]1C(=O)N[C@@H](CC(N)=O)C(=O)N[C@H]2C(=O)N[C@H]3C(=O)N[C@H](C(=O)N[C@H](C(=O)O)c4cc(O)cc(O)c4-c4cc3ccc4O)[C@H](O)c3ccc(c(Cl)c3)Oc3cc2cc(c3O[C@@H]2O[C@H](CO)[C@@H](O)[C@H](O)[C@H]2O[C@H]2C[C@](C)(N)[C@H](O)[C@H](C)O2)Oc2ccc(cc2Cl)[C@H]1O", "note": "[Vancomycin, vancomycin]", "values": [{"measurement": "FICI", "setting": "[1]", "value": 0.37}, {"measurement": "MIC (μg/ml) of each agent Combination", "setting": "[1]", "value": 16, "unit": "µg/mL"}, {"measurement": "Outcome", "setting": "[1]", "value": "Synergy"}, {"measurement": "MIC", "setting": "[1]; Enterococcus faecium, 24 h, read-out: MIC (μg/ml) of each agent Alone", "value": 128, "unit": "µg/mL"}, {"measurement": "FICI", "setting": "[2]", "value": 0.125}, {"measurement": "MIC (μg/ml) of each agent Combination", "setting": "[2]", "value": 0.125, "unit": "µg/mL"}, {"measurement": "Outcome", "setting": "[2]", "value": "Synergy"}, {"measurement": "MIC", "setting": "[2]; Clostridioides difficile, NCR1104, 48 h, read-out: MIC (μg/ml) of each agent Alone", "value": 1, "unit": "µg/mL"}]}
{"molecule": "B1", "values": [{"measurement": "Outcome of combination", "setting": "C. difficile 14000287; H1L1 and vancomycin versus C. difficile 14000287", "value": "synergy (synergy was defined by a value of <=0.5)"}, {"measurement": "MIC (μg/ml) of each agent Alone", "setting": "C. difficile 14000287; Brucella broth", "value": 512, "unit": "µg/mL"}, {"measurement": "FIC (μg/ml)", "setting": "C. difficile 14000287; [4]", "value": 0.0156}, {"measurement": "MIC (μg/ml) of each agent Combination", "setting": "C. difficile 14000287; [4]", "value": 8, "unit": "µg/mL"}, {"measurement": "Outcome", "setting": "C. difficile 14000287; [4]", "value": "synergy (synergy was defined by a value of <=0.5)"}, {"measurement": "MIC (μg/ml) of each agent Alone", "setting": "C. difficile NCTC 11204", "value": 512, "unit": "µg/mL"}, {"measurement": "FIC (μg/ml)", "setting": "C. difficile NCTC 11204; gentamicin + H1L1 combination", "value": 0.125}, {"measurement": "MIC (μg/ml) of each agent Combination", "setting": "C. difficile NCTC 11204; gentamicin + H1L1 combination", "value": 64, "unit": "µg/mL"}, {"measurement": "Outcome", "setting": "C. difficile NCTC 11204; gentamicin + H1L1 combination", "value": "synergy (synergy was defined by a value of <=0.5)"}, {"measurement": "MIC (μg/ml) of each agent Alone", "setting": "[1]; agent alone, 24 h", "value": 512, "unit": "µg/mL"}, {"measurement": "FIC (μg/ml)", "setting": "[1]; vancomycin + H1L1 combination", "value": 0.25}, {"measurement": "MIC (μg/ml) of each agent Combination", "setting": "[1]; vancomycin + H1L1 combination", "value": 128, "unit": "µg/mL"}, {"measurement": "Outcome", "setting": "[1]; vancomycin + H1L1 combination", "value": "synergy (synergy was defined by a value of <=0.5)"}, {"measurement": "Interaction of H1L1 and SCFA", "setting": "Clostridium difficile; [5]", "value": "Synergy"}, {"measurement": "optical density at 24 hours", "setting": "Clostridium difficile; [5]", "value": "0.296-0.330"}, {"measurement": "Effect on growth", "setting": "Clostridium difficile; 16 μg/ml of H1L1 alone", "value": "inhibition"}, {"measurement": "Effect on growth", "setting": "Clostridium difficile; 0.5, 1, 2, 4 and 8 μg/ml of H1L1 alone", "value": "No effect"}, {"measurement": "Interaction of H1L1 and SCFA", "setting": "Clostridium difficile; 1, 2 and 4 μg/ml of H1L1 and 5 mM of SCFA (data not shown)", "value": "Indifference"}, {"measurement": "Mean Optical Density at 24 Hours", "setting": "Clostridium difficile; H1L1 0.5 μg/ml alone", "value": 0.450}, {"measurement": "Mean Optical Density at 24 Hours", "setting": "Clostridium difficile; H1L1 1 μg/ml alone", "value": 0.440}, {"measurement": "Mean Optical Density at 24 Hours", "setting": "Clostridium difficile; H1L1 2 μg/ml alone", "value": 0.440}, {"measurement": "Mean Optical Density at 24 Hours", "setting": "Clostridium difficile; H1L1 4 μg/ml alone", "value": 0.440}, {"measurement": "Mean Optical Density at 24 Hours", "setting": "Clostridium difficile; H1L1 8 μg/ml + SCFA 10 mM", "value": 0.310}, {"measurement": "Mean Optical Density at 24 Hours", "setting": "Clostridium difficile; H1L1 8 μg/ml + SCFA 20 mM", "value": 0.296}, {"measurement": "Mean Optical Density at 24 Hours", "setting": "Clostridium difficile; H1L1 8 μg/ml + SCFA 30 mM", "value": 0.305}, {"measurement": "Mean Optical Density at 24 Hours", "setting": "Clostridium difficile; H1L1 8 μg/ml + SCFA 40 mM", "value": 0.310}, {"measurement": "Mean Optical Density at 24 Hours", "setting": "Clostridium difficile; H1L1 8 μg/ml + SCFA 50 mM", "value": 0.330}, {"measurement": "Mean Optical Density at 24 Hours", "setting": "Clostridium difficile; H1L1 8 μg/ml alone", "value": 0.420}, {"measurement": "Mean Optical Density at 24 Hours", "setting": "Clostridium difficile; H1L1 16 μg/ml + SCFA 10 mM", "value": 0.308}, {"measurement": "Mean Optical Density at 24 Hours", "setting": "Clostridium difficile; H1L1 16 μg/ml + SCFA 20 mM", "value": 0.228}, {"measurement": "Mean Optical Density at 24 Hours", "setting": "Clostridium difficile; H1L1 16 μg/ml + SCFA 30 mM", "value": 0.308}, {"measurement": "Mean Optical Density at 24 Hours", "setting": "Clostridium difficile; H1L1 16 μg/ml + SCFA 40 mM", "value": 0.303}, {"measurement": "Mean Optical Density at 24 Hours", "setting": "Clostridium difficile; H1L1 16 μg/ml + SCFA 50 mM", "value": 0.281}, {"measurement": "Mean Optical Density at 24 Hours", "setting": "Clostridium difficile; H1L1 16 μg/ml alone", "value": 0.334}, {"measurement": "Immunoblot response to the thiolase band", "setting": "[3]", "value": "strong response"}, {"measurement": "FIC (μg/ml)", "setting": "[2]", "value": 0.0004}, {"measurement": "MIC (μg/ml) of each agent Combination", "setting": "[2]", "value": 0.25, "unit": "µg/mL"}, {"measurement": "Outcome", "setting": "[2]", "value": "synergy (key: synergy was defined by a value of <=0.5; indifference was defined by a value of >0.5 to <4; antagonism was defined by a value of >=4.0)"}]}
